Reference: PMC7246612, “The In Vitro Non-Tetramerizing ZapA^I83E Mutant Is Unable to Recruit ZapB to the Division Plane In Vivo in Escherichia coli” (International Journal of Molecular Sciences, 2020)

How the values were obtained:
[1] = molecular target: T1, mKO–PBP1a (inner membrane protein PBP1a fused to mKO) (UniProt P02918 1-850); assay: FRET or BRET; in vivo FRET in E. coli TB28 ∆zapA cells; mKO fusion (donor) and mCh fusion (acceptor) expressed from plasmids; energy transfer efficiency (EfA) by spectral unmixing; conditions: partners not purified
T1 construct: PBP1a, inner membrane protein; Negative control partner in the FRET assay; also called pBB004; pSAV–mKO–PBP1a; source: E. coli TB28 ∆zapA, expressed from plasmid pBB004, in living cells; not shown: mKO, N-terminal, kept
T1 sequence (looked up): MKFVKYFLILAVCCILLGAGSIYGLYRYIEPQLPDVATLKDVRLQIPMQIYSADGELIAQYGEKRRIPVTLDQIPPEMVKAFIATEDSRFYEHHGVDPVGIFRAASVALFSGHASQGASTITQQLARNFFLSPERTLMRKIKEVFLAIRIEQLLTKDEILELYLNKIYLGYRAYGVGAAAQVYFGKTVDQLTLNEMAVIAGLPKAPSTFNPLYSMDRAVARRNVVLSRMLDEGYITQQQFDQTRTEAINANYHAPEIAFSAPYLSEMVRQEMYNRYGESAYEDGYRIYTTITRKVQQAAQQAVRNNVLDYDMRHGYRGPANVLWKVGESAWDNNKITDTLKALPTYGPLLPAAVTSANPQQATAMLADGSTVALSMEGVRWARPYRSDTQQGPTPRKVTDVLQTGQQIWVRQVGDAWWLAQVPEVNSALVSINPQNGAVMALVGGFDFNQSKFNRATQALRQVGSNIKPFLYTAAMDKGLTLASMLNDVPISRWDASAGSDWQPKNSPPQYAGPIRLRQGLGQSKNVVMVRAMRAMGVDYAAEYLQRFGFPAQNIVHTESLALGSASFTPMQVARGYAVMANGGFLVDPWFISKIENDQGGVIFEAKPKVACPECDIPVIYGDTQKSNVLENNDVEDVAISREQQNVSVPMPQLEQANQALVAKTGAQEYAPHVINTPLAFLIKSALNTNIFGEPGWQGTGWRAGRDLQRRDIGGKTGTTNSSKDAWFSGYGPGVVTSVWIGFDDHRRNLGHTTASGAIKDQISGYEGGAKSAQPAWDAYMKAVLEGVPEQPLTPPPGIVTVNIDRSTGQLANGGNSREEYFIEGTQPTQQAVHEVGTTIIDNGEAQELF

mKO–FtsZ (filamenting …) = molecular target: T2, mKO–FtsZ (filamenting temperature-sensitive Z fused to mKO) (Escherichia coli, UniProt P0A9A6 1-383); assay: as above; conditions: partners not purified
T2 construct: filamenting temperature-sensitive Z (FtsZ), Escherichia coli; also called pSAV072; pSAV–mKO–FtsZ; source: E. coli TB28 ∆zapA or WT strain, expressed from plasmid pSAV072, in living cells; not shown: mKO, N-terminal, kept
T2 sequence (looked up): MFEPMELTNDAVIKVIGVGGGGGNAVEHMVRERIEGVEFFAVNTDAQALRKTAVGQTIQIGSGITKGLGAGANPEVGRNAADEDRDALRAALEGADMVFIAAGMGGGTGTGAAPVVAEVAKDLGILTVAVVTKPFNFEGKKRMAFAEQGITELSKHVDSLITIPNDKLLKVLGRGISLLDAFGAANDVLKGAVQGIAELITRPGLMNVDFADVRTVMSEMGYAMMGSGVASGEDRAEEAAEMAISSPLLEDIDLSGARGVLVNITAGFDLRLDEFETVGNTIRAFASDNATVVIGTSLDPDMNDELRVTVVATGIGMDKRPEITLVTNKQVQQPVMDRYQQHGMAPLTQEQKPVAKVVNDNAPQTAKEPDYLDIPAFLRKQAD

Binder	EfA (energy transfer efficiency) [1]	EfA (energy transfer efficiency) (mKO–FtsZ (filamenting …))
mCh–ZapA (wild-type Z-associated protein A fused to mCh) (natural protein, Escherichia coli, UniProt P0ADS2 1-109, looked up, Z-associated protein A (ZapA), Escherichia coli; also called mCh–ZapA^WT; ZapA^WT; source: E. coli TB28 ∆zapA or WT strain, expressed from plasmid pSAV077, in living cells; not shown: mCh, N-terminal, kept) MSAQPVDIQIFGRSLRVNCPPDQRDALNQAADDLNQRLQDLKERTRVTNTEQLVFIAALNISYELAQEKAKTRDYAASMEQRIRMLQQTIEQALLEQGRITEKTNQNFE	< 1.7%	4%
mCh–ZapA^I83E (in vitro non-tetramerizing ZapA mutant fused to mCh) (natural protein, Escherichia coli, UniProt P0ADS2 1-109, looked up, Z-associated protein A (ZapA), Escherichia coli, with I83E; made by exchanging zapA in pSAV077 with zapA^I83E from pRP071; also called pNM137; pTHV–mCh–ZapA^I83E; source: E. coli TB28 ∆zapA or WT strain, expressed from plasmid pNM137, in living cells; not shown: mCh, N-terminal, kept) MSAQPVDIQIFGRSLRVNCPPDQRDALNQAADDLNQRLQDLKERTRVTNTEQLVFIAALNISYELAQEKAKTRDYAASMEQRERMLQQTIEQALLEQGRITEKTNQNFE	< 1.7%	
mCh–PBP1b (PBP1b fused to mCh) (natural protein, UniProt P02919 1-844, looked up, PBP1b; Negative control in the FRET assay; also called pBB008; pTHV–mCh–PBP1b; source: E. coli TB28 ∆zapA, expressed from plasmid pBB008, in living cells; not shown: mCh, N-terminal, kept) MAGNDREPIGRKGKPTRPVKQKVSRRRYEDDDDYDDYDDYEDEEPMPRKGKGKGKGRKPRGKRGWLWLLLKLAIVFAVLIAIYGVYLDQKIRSRIDGKVWQLPAAVYGRMVNLEPDMTISKNEMVKLLEATQYRQVSKMTRPGEFTVQANSIEMIRRPFDFPDSKEGQVRARLTFDGDHLATIVNMENNRQFGFFRLDPRLITMISSPNGEQRLFVPRSGFPDLLVDTLLATEDRHFYEHDGISLYSIGRAVLANLTAGRTVQGASTLTQQLVKNLFLSSERSYWRKANEAYMALIMDARYSKDRILELYMNEVYLGQSGDNEIRGFPLASLYYFGRPVEELSLDQQALLVGMVKGASIYNPWRNPKLALERRNLVLRLLQQQQIIDQELYDMLSARPLGVQPRGGVISPQPAFMQLVRQELQAKLGDKVKDLSGVKIFTTFDSVAQDAAEKAAVEGIPALKKQRKLSDLETAIVVVDRFSGEVRAMVGGSEPQFAGYNRAMQARRSIGSLAKPATYLTALSQPKIYRLNTWIADAPIALRQPNGQVWSPQNDDRRYSESGRVMLVDALTRSMNVPTVNLGMALGLPAVTETWIKLGVPKDQLHPVPAMLLGALNLTPIEVAQAFQTIASGGNRAPLSALRSVIAEDGKVLYQSFPQAERAVPAQAAYLTLWTMQQVVQRGTGRQLGAKYPNLHLAGKTGTTNNNVDTWFAGIDGSTVTITWVGRDNNQPTKLYGASGAMSIYQRYLANQTPTPLNLVPPEDIADMGVDYDGNFVCSGGMRILPVWTSDPQSLCQQSEMQQQPSGNPFDQSSQPQQQPQQQPAQQEQKDSDGVAGWIKDMFGSN	< 1.7%	
